{
  "source": "patent US9889181B2",
  "about": "“Bacteriophage lysin and antibiotic combinations against gram positive bacteria” (priority 2012, dated 2018)",
  "key": {"Proteus mirabilis": {"system": "Proteus mirabilis", "assay": "MIC, human gut bacteria", "type": "cell-based", "settings": "N 2"}, "MRSA strains": {"system": "MRSA strains", "assay": "Time kill assay, PlySs2 and antibiotic alone or in combination", "type": "cell-based, Staphylococcus aureus", "settings": "½ MIC of PlySs2 or ¼ MIC of vancomycin alone"}, "MRSA S. aureus strains": {"system": "MRSA S. aureus strains", "assay": "Dual agent MIC assay (PlySs2 and daptomycin)", "type": "cell-based, Staphylococcus aureus"}, "MRSA strain MW2": {"system": "MRSA strain MW2", "assay": "Murine bacteremia, low challenge model", "type": "in vivo, BALB/c mice", "settings": "single dose at 4 hours; 1.25 mg/kg PlySs2, 2 mg/kg daptomycin"}, "MRSA": {"system": "MRSA", "assay": "Murine bacteremia, PlySs2 dose-response and blood CFUs", "type": "in vivo, mice", "settings": "for decrease in CFUs in blood: 5.25 mg/kg at 2-hours post-infection"}, "MSSA": {"system": "MSSA", "assay": "MIC, broth microdilution (CLSI M07-A9)"}, "VRSA": {"system": "VRSA", "assay": "MIC, broth microdilution (CLSI M07-A9)"}, "LRSA": {"system": "LRSA", "assay": "MIC, broth microdilution (CLSI M07-A9)", "set-up": "MIC 50% / MIC 90% / MIC Range: unit not given beside the values"}, "DRSA": {"system": "DRSA", "assay": "MIC, broth microdilution (CLSI M07-A9)"}, "Enterococcus faecalis": {"system": "Enterococcus faecalis", "assay": "MIC, broth microdilution (CLSI M07-A9)", "settings": "Enterococcus faecalis (17)"}, "Enterococcus faecium": {"system": "Enterococcus faecium", "assay": "MIC, broth microdilution (CLSI M07-A9)", "settings": "Enterococcus faecium (5)"}, "Escherichia coli": {"system": "Escherichia coli", "assay": "MIC, broth microdilution (CLSI M07-A9)"}, "[1]": {"settings": "Staphylcoccus aureus Methicillin susceptible (103)"}, "[2]": {"settings": "Linezolid-resistant (5) Staphylococcus aureus"}},
  "data": [
    {"molecule": "PlySs2: bacteriophage lysin derived from Streptococcus suis, amino acid sequence of FIG. 29 (SEQ ID NO: 1) (protein, listed as Streptococcus suis) MTTVNEALNNVRAQVGSGVSVGNGECYALASWYERMISPDATVGLGAGVGWVSGAIGDTISAKNIGSSYNWQANGWTVSTSGPFKAGQIVTLGATPGNPYGHVVIVEAVDGDRLTILEQNYGGKRYPVRNYYSAASYRQQVVHYITPPGTVAQSAPNLAGSRSYRETGTMTVTVDALNVRRAPNTSGEIVAVYKRGESFDYDTVIIDVNGYVWVSYIGGSGKRNYVATGATKDGKRFGNAWGTFK", "values": [
      {"measurement": "CF-301 MIC", "setting": "Proteus mirabilis", "value": ">512", "unit": "µg/mL"},
      {"measurement": "effect alone at sub-MIC doses up to 6 hours", "setting": "MRSA strains", "value": "ineffective or poorly effective"},
      {"measurement": "Fold reduction", "setting": "MRSA S. aureus strains; MRSA strain 223", "value": 4, "unit": "fold"},
      {"measurement": "Fold reduction", "setting": "MRSA S. aureus strains; MRSA strain 241", "value": 2, "unit": "fold"},
      {"measurement": "Fold reduction", "setting": "MRSA S. aureus strains; MRSA strain 263", "value": 4, "unit": "fold"},
      {"measurement": "Fold reduction", "setting": "MRSA S. aureus strains; MRSA strain 269 (MW2)", "value": 4, "unit": "fold"},
      {"measurement": "Fold reduction", "setting": "MRSA S. aureus strains; MRSA strain 270", "value": 4, "unit": "fold"},
      {"measurement": "Fold reduction", "setting": "MRSA S. aureus strains; MRSA strain 553", "value": 2, "unit": "fold"},
      {"measurement": "Fold reduction", "setting": "MRSA S. aureus strains; MRSA strain 650", "value": 2, "unit": "fold"},
      {"measurement": "Fold reduction", "setting": "MRSA S. aureus strains; MRSA strain 827", "value": 2, "unit": "fold"},
      {"measurement": "Fold reduction", "setting": "MRSA S. aureus strains; MRSA strain 828", "value": 4, "unit": "fold"},
      {"measurement": "Fold reduction", "setting": "MRSA S. aureus strains; MRSA strain 829", "value": 2, "unit": "fold"},
      {"measurement": "Fold reduction", "setting": "MRSA S. aureus strains; MRSA strain 830", "value": 2, "unit": "fold"},
      {"measurement": "Fold reduction", "setting": "MRSA S. aureus strains; MRSA strain 833", "value": 4, "unit": "fold"},
      {"measurement": "fold reduction in the effective MIC in PlySs2/daptomycin combination", "setting": "MRSA S. aureus strains; across 12 MRSA strains", "value": "2-4 fold"},
      {"measurement": "survival at 72 hours", "setting": "MRSA strain MW2", "value": 13, "unit": "%"},
      {"measurement": "protection", "setting": "MRSA; 5 mg/kg dose, data not shown", "value": "significant protection"},
      {"measurement": "decrease in CFUs in blood", "setting": "MRSA; in 15 minutes", "value": 0.5, "unit": "log10"},
      {"measurement": "decrease in CFUs in blood", "setting": "MRSA; within the 60 minutes of treatment", "value": 2, "unit": "log10"},
      {"measurement": "lowest dose with survival enhancement over mock-injected control", "setting": "MRSA; data not shown", "value": 0.25, "unit": "mg/kg"},
      {"measurement": "MIC90", "setting": "MSSA; MSSA (n-28)", "value": 0.15, "unit": "µM"},
      {"measurement": "MIC 50%", "setting": "MSSA; [1]", "value": 4, "unit": "µg/mL"},
      {"measurement": "MIC 90%", "setting": "MSSA; [1]", "value": 8, "unit": "µg/mL"},
      {"measurement": "MIC Range", "setting": "MSSA; [1]", "value": "1 to 16", "unit": "µg/mL"},
      {"measurement": "MIC90", "setting": "VRSA; VRSA (n = 14)", "value": 0.08, "unit": "µM"},
      {"measurement": "MIC Range", "setting": "VRSA; Vancomycin-resistant (14) Staphylococcus aureus", "value": "1000 to 4000", "unit": "µg/mL"},
      {"measurement": "MIC90", "setting": "LRSA; LRSA (n = 5)", "value": 0.08, "unit": "µM"},
      {"measurement": "MIC 50%", "setting": "LRSA; [2]", "value": 2},
      {"measurement": "MIC 90%", "setting": "LRSA; [2]", "value": 2},
      {"measurement": "MIC Range", "setting": "LRSA; [2]", "value": "2-4"},
      {"measurement": "MIC90", "setting": "DRSA; DRSA (n = 8)", "value": 0.15, "unit": "µM"},
      {"measurement": "MIC Range", "setting": "DRSA; Daptomycin-resistant (8) Staphylococcus aureus", "value": "2000 to 4000", "unit": "µg/mL"},
      {"measurement": "MIC 50%", "setting": "Enterococcus faecalis", "value": ">512", "unit": "µg/mL"},
      {"measurement": "MIC 90%", "setting": "Enterococcus faecalis", "value": ">512", "unit": "µg/mL"},
      {"measurement": "MIC 50%", "setting": "Enterococcus faecium", "value": ">512", "unit": "µg/mL"},
      {"measurement": "MIC 90%", "setting": "Enterococcus faecium", "value": ">512", "unit": "µg/mL"},
      {"measurement": "MIC 50%", "setting": "Escherichia coli; Escherichia coli (6)", "value": ">512", "unit": "µg/mL"},
      {"measurement": "MIC 90%", "setting": "Escherichia coli; Escherichia coli (6)", "value": ">512", "unit": "µg/mL"},
      {"measurement": "MIC Range", "setting": "Escherichia coli; Escherichia coli (6)", "value": ">512", "unit": "µg/mL"},
      {"measurement": "CF-301 MIC", "setting": "Escherichia coli; Escherichia coli, N 10, human gut bacteria", "value": ">512", "unit": "µg/mL"}
    ]}
  ]
}
